{
  "source": "paper PMC9098466",
  "about": "“Substrate recognition and cryo-EM structure of the ribosome-bound TAC toxin of Mycobacterium tuberculosis” (Nature Communications, 2022)",
  "binders": {"B1": {"name": "HigB^TAC[K95A] toxin of Mycobacterium tuberculosis (enzyme)", "chain": "MPPPDPAAMGTWKFFRASVDGRPVFKKEFDKLPDQARAALIVLMQRYLVGDLAAGSIKPIRGDILELRWHEANNHFRVLFFRWGQHPVALTAFYANQQKTPKTKIETALDRQKIWKRAFGDTPPI", "notes": "also called HigB1"}},
  "molecular_target": "ribosomal protein uS13 of the E. coli 70S ribosome (E. coli (endogenous in MG1655), UniProt P0A7S9 1-118)",
  "assay": "cryo-EM structure",
  "conditions": "both partners purified",
  "data": [
    {"binder": "B1", "values": [
      {"measurement": "binding result", "result": "binds"}
    ]}
  ]
}
